Assay results as given in the supplement of paper PMC10567573.

B1: FBF1 (parent)
chain: LQRASILDMRRDHEEQLQRLKLLK
B2: MIA2 (parent)
chain: NSISSDKEATVPCTEILTEKKDTI

Variants of: B1
Test: protein stability index of a GFP-peptide fusion (GPS, HEK-293T) (PSI 1-6); higher = more stable
Conditions: c terminus: a fixed tail appended
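Note: lentivirally expressed fusions sorted by FACS into six bins by GFP to DsRed ratio, PSI derived from sequencing read proportions per bin multiplied by bin number.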

Protein stability index, by site and new letter:
D12: E 3.93 | T 3.69 | K 3.15 | P 3.38 | H 3.3 | S 3.31 | R 3.05
Q2: A 3.28 | V 2.88 | L 2.25
Q18: L 2.92 | D 3.58 | E 3.3 | A 3.7 | M 2.86 | H 3.02 | V 3.11 | T 3.36
H13: K 2.68 | E 4.15 | T 3.27 | R 3.19 | F 3.17 | M 3.13
R10: G 3.79 | V 3.33 | E 3.35 | N 3.91 | S 3.9
D8: K 2.77 | T 3.49 | I 2.51 | F 2.56 | A 3.01
R11: E 3.64 | H 2.88 | A 3.23 | M 3.03 | V 3.18 | F 2.89 | P 3.67
L7: A 4.22 | E 4.55 | G 4.1 | D 4.03 | I 3.09
L17: K 4.05 | D 4.23 | Y 3.55 | W 2.96
M9: S 3.49 | T 3.94 | P 3.93 | L 3.24 | I 3.81 | E 3.72 | A 3.84 | N 3.85 | G 4.12 | D 3.4
L1: R 3.3 | E 4.42 | N 3.64 | I 4.12 | H 3.33 | M 3.45 | Q 3.69 | K 3.64
I6: S 4.15 | H 4.19 | R 3.46 | Q 4.06 | A 4.03 | W 3.62 | M 3.94
S5: E 3.15 | M 3.03 | C 2.99 | R 2.83 | L 2.49 | Y 2.26 | W 2.34 | A 3.59 | I 2.34
L23: W 3 | M 4.21 | H 4.26 | C 4.09 | T 4.03
R3: C 3.02 | L 2.92 | P 4.02 | W 1.9 | T 3.5 | G 4.21 | A 3.86 | N 3.93
R19: F 1.69 | Q 3.33 | H 2.78 | N 3.89 | S 3.48 | L 2.22 | D 4.26
E15: R 3.22 | S 2.96 | M 3.12 | H 3.09 | L 2.56 | Q 3.18 | D 3.34
L22: Y 3.15 | R 3.74 | C 3.94 | V 3.92 | N 4.4
L20: Y 3.83 | V 3.79 | S 4.11 | W 2.78 | R 4.13 | K 4.1 | P 4.21 | D 4.45 | H 3.96
Q16: F 1.73 | I 2.28 | S 3.43 | M 1.38 | W 2.97 | P 3.51 | K 3.61 | D 4.02 | Y 2.75
A4: R 3.83
K24: R 3.3 | P 3.55 | I 2.28 | S 2.82 | G 3.2 | V 1.92 | H 3.44
E14: L 3.17 | P 2.82 | M 2.56 | S 2.95 | C 2.79 | V 2.69
K21: S 3.21 | G 3.49 | P 4.75 | C 2.65 | L 3.01 | Q 3.18

Variants of: B2
Test: as above
Conditions: c terminus: a fixed tail appended

Protein stability index of substitutions, site by site:
I16: Y 5.12 | D 5.81 | C 5.27 | M 5.49
A9: L 5.32 | D 5.11 | G 5.42 | H 5.32
E19: V 5.18 | R 5.42 | W 4.59 | G 5.22 | H 5.03
D6: Q 5.12 | A 5.45 | C 4.52 | P 5.35 | V 5.14 | T 5.31 | K 5.2
V11: K 5.59 | L 5.41 | M 5.59
I24: G 5.56 | V 5.63 | F 5.33 | M 5.52 | S 5.69 | N 5.7 | H 5.45 | C 5.68 | A 5.66 | E 5.81
T14: R 5.33 | D 5.88 | K 5.49 | M 5.12 | L 4.99 | A 5.36
T23: M 5.33 | L 5.37 | F 4.83 | N 5.24 | W 4.17 | C 5.46 | S 5.47 | A 5.55 | P 5.65 | V 5.32 | Y 5.1 | D 5.17 | Q 5.55
S4: A 5.41 | F 4.76 | I 4.68 | C 5.67 | R 5.35 | T 5.25 | E 5.68
P12: I 5.11 | V 5.35 | L 4.54 | A 5.49 | G 5.53 | D 5.53 | M 5.21 | E 5.57
E15: H 5.04 | Y 4.68 | P 5.16 | T 5.46 | V 4.66 | W 4.13 | F 4.46 | Q 5.32 | G 4.92 | K 4.92 | A 5.24
T10: V 5.29 | W 5.07 | L 5.43 | Q 5.48 | H 5.48 | F 5.27
N1: E 5.73 | K 5.76 | H 5.44 | M 5.33 | Y 4.81 | W 4.89 | L 5.09 | R 5.48 | S 5.62 | A 5.42 | V 5 | G 5.24
C13: G 5.49 | L 5.25 | E 5.57 | Y 5.01 | S 5.65 | Q 5.57 | D 5.54
S2: A 5.52 | Q 5.33 | W 5.05 | K 5.19 | H 5.09 | R 5.26 | V 5.46 | N 5.66 | C 5.27 | G 5.37 | L 5.37
E8: M 5.14 | L 5.31 | P 5.27 | V 4.99 | R 5.74 | K 5.46
I3: A 5.61 | E 5.51 | P 5.36 | N 5.7 | Y 5.58 | C 5.33 | K 5.71
T18: Y 5.19 | K 5.42 | E 5.63 | C 5.05 | A 4.93 | S 5.39 | D 5.72 | P 5.26
L17: F 5.29 | K 5.46 | D 5.46 | Y 5.37 | Q 5.4 | G 5.64 | S 5.57
D22: C 4.97 | Q 5.11 | V 4.31 | K 5.16 | I 4.55 | A 5.35 | P 5.43 | N 5.21 | H 4.94 | S 4.7
K21: V 5.1 | E 5.69 | H 5.15 | T 5.51 | F 5.07 | R 5.39 | W 4.59 | A 5.37 | G 5.16 | M 5.7
S5: D 5.4 | V 5.46 | N 5.69 | E 5.67 | Y 5.23
K7: A 5.07 | H 5.38 | P 5.62 | D 5.4 | T 5.49 | F 4.95 | E 5.21
K20: L 4.94 | G 5.47 | Y 4.75 | S 5.54 | R 5.17 | W 4.54
